# US20170290876A1 (Novartis, published 2017)
# Residue numbers refer to the chain shown, from its start.
# T1: human VEGF (human, UniProt P15692 207-395, biotinylated (site not stated))
# T1 construct: Biotinylated human VEGF generated internally; also called hVEGF; hVEGF-biotin
# T1 sequence: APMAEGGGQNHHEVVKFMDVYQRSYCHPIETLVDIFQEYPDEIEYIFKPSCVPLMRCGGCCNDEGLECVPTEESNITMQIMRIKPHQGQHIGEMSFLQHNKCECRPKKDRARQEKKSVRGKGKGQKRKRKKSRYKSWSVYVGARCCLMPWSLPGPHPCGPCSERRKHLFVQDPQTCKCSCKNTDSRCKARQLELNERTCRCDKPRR
# B1: NVS4 (Fab)
# heavy: EVQLVESGGGLVQPGGSLRLSCTASGFSLTDYYYMTWVRQAPGKGLEWVGFIDPDDDPYYATWAKGRFTISRDNSKNTLYLQMNSLRAEDTAVYYCAGGDHNSGWGLDIWGQGTLVTVSSASTKGPSVFPLAPSSKSTSGGTAALGCLVKDYFPEPVTVSWNSGALTSGVHTFPAVLQSSGLYSLSSVVTVPSSSLGTQTYICNVNHKPSNTKVDKRVEPKSC
# light: EIVMTQSPSTLSASVGDRVIITCQASEIIHSWLAWYQQKPGKAPKLLIYLASTLASGVPSRFSGSGSGAEFTLTISSLQPDDFATYYCQNVYLASTNGANFGQGTKLTVLKRTVAAPSVFIFPPSDEQLKSGTASVVCLLNNFYPREAKVQWKVDNALQSGNSQESVTEQDSKDSTYSLSSTLTLSKADYEKHKVYACEVTHQGLSSPVTKSFNRGEC
# notes: Fab version of the 1008 scFv; also called untagged anti-VEGF Fab
# B2: NVS1 (Fab)
# heavy: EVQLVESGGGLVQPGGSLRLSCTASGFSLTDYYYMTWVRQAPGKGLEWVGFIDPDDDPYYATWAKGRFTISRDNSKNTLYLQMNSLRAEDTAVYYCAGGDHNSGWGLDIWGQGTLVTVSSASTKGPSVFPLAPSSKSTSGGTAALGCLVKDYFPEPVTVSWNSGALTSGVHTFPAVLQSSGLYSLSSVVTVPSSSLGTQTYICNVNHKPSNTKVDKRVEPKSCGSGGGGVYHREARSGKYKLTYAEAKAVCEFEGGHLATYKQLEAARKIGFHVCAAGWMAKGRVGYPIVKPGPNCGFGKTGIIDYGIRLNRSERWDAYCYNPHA
# light: B1 light
# notes: NVS4 Fab with HA10 tag via GSGGG at heavy chain C-terminus
# B3: NVS2 (Fab)
# heavy: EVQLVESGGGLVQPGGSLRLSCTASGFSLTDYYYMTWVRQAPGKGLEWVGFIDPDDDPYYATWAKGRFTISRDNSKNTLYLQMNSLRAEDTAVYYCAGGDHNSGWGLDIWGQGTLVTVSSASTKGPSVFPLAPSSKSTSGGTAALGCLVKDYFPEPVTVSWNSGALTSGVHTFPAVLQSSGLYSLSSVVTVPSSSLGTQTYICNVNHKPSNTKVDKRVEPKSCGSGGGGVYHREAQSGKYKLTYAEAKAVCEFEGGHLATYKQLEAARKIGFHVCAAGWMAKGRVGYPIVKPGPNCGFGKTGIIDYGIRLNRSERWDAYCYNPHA
# light: B1 light
# notes: NVS4 Fab with HA10.1 tag at heavy chain C-terminus
# B4: NVS3 (Fab)
# heavy: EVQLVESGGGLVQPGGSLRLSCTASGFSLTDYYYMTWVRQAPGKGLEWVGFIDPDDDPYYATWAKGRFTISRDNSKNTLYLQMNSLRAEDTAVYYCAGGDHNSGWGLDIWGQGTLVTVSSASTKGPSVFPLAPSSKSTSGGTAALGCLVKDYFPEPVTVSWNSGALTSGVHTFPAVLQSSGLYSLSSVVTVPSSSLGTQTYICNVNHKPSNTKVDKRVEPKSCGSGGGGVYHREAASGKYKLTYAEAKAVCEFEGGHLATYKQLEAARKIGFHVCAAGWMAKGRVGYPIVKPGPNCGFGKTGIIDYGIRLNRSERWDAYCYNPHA
# light: B1 light
# notes: NVS4 Fab with HA10.2 tag at heavy chain C-terminus
# B5: NVS37 (Fab)
# heavy: EVQLVESGGGLVQPGGSLRLSCTASGFSLTDYYYMTWVRQAPGKGLEWVGFIDPDDDPYYATWAKGRFTISRDNSKNTLYLQMNSLRAEDTAVYYCAGGDHNSGWGLDIWGQGTLVTVSSASTKGPSVFPLAPSSKSTSGGTAALGCLVKDYFPEPVTVSWNSGALTSGVHTFPAVLQSSGLYSLSSVVTVPSSSLGTQTYICNVNHKPSNTKVDKRVEPKSCGSGGGGVYHREAQSGKYKLTYAEAKAVCEFEGGHLCTYKQLEAARKIGFHVCAAGWMAKGRVGYPIVKPGPNCGFGKTGIIDYGIRLNRSERWDAYCCNPHA
# light: B1 light
# notes: NVS4 Fab with HA11.1 tag
# B6: NVS1e (Fab)
# heavy: EVQLVESGGGLVQPGGSLRLSCTASGFSLTDYYYMTWVRQAPGKGLEWVGFIDPDDDPYYATWAKGRFTISRDNSKNTLYLQMNSLRAEDTAVYYCAGGDHNSGWGLDIWGQGTLVTVSSASTKGPSVFPLAPSSKSTSGGTAALGCLVKDYFPEPVTVSWNSGALTSGVHTFPAVLQSSGLYSLSSVVTVPSSSLGTQTYICNVNHKPSNTKVDKRVEPKSCGS
# light: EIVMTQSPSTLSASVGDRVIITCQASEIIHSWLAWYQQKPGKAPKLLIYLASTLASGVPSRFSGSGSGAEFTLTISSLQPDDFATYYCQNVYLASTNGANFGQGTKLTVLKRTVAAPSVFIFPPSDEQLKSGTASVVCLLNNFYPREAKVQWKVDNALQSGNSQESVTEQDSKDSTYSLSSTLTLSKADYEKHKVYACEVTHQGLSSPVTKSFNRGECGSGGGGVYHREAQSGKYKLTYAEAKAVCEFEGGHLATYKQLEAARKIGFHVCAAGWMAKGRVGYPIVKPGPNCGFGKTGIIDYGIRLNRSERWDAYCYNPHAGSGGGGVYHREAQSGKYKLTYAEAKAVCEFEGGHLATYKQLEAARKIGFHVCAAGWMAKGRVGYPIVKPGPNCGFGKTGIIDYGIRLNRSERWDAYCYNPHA
# notes: NVS4 with two tandem HA tags at the light chain C-terminus
# B7: NVS1g (Fab)
# heavy: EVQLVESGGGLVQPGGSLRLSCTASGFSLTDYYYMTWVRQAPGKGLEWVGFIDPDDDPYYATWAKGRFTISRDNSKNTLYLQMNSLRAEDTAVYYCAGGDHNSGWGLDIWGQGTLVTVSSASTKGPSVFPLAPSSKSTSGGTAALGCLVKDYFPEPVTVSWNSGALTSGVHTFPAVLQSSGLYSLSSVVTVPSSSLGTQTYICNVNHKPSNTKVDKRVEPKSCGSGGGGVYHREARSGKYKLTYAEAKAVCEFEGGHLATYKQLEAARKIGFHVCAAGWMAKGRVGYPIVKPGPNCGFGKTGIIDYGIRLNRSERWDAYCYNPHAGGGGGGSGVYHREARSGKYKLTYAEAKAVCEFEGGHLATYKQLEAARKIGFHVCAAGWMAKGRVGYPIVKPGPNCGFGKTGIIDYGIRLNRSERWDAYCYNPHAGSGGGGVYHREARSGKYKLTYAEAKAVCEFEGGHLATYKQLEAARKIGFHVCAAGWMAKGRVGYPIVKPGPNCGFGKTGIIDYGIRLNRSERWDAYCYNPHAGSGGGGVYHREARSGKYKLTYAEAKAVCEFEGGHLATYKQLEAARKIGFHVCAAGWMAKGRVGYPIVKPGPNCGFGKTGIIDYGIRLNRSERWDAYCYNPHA
# light: B1 light
# notes: NVS4 with four tandem HA tags at the heavy chain C-terminus
# B8: NVS1h (Fab)
# heavy: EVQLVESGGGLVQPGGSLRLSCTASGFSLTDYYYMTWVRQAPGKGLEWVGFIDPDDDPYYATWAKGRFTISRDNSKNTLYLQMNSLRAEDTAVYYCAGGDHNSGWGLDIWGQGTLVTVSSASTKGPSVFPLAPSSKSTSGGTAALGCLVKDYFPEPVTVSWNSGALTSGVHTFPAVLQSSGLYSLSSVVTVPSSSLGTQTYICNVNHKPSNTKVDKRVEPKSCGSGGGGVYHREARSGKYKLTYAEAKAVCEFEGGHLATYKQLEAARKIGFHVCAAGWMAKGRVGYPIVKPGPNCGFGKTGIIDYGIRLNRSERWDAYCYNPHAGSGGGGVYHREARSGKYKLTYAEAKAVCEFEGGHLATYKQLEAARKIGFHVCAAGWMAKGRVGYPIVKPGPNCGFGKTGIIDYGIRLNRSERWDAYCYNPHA
# light: B1 light
# notes: NVS4 with tandem HA tags at the heavy chain C-terminus
# B9: NVS1j (Fab)
# heavy: B1 heavy
# light: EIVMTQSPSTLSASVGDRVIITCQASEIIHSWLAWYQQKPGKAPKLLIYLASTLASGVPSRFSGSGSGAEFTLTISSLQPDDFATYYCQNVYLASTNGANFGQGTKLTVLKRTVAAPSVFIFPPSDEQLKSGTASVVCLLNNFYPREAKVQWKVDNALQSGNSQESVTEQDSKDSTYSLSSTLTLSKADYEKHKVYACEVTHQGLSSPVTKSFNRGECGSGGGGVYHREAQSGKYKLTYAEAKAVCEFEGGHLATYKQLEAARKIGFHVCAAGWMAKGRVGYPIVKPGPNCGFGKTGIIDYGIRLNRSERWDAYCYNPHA
# notes: NVS4 with HA tag at the light chain C-terminus
# B10: NVS71 (Fab, V domains shown)
# VH: EVQLVQSGAEVKKPGSSVKVSCKASGGTFSSYAISWVRQAPGQGLEWMGRIIPIFGTANYAQKFQGRVTITADESTSTAYMELSSLRSEDTAVYYCARHGGYSFDSWGQGTLVTVSS
# VL: SYELTQPPSVSVAPGQTARISCSGDNLGSKYVDWYQQKPGQAPVLVIYSDNNRPSGIPERFSGSNSGNTATLTISGTQAEDEADYYCQTYTSGNNYLVFGGGTKLTVLG
# notes: Untagged anti-Factor P Fab
# B11: NVS73 (Fab, V domains shown)
# VH: EVQLVESGGGSVQPGGSLRLSCTASGFTISRSYWICWVRQAPGKGLEWVGCIYGDNDITPLYANWAKGRFTISRDTSKNTVYLQMNSLRAEDTATYYCARLGYADYAYDLWGQGTTVTVSS
# VL: EIVMTQSPSTLSASVGDRVIITCQSSQSVYGNIWMAWYQQKPGRAPKLLIYQASKLASGVPSRFSGSGSGAEFTLTISSLQPDDFATYYCQGNFNTGDRYAFGQGTKLTVLK
# notes: Untagged anti-TNFα Fab
# B12: NVS36 (Fab)
# heavy: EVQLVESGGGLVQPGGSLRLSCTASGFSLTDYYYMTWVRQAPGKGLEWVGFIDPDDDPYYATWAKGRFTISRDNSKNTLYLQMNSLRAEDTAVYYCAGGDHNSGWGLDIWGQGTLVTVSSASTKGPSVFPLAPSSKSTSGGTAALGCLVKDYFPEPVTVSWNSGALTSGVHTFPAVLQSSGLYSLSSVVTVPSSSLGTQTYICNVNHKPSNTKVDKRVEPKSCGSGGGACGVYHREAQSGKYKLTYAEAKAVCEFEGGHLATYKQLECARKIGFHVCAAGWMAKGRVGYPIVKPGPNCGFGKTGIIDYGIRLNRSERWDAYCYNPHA
# light: B1 light
# notes: NVS4 Fab with HA11 tag; also called NVS4 linked to tag NVS-A
# B13: NVS82 (antibody, human IgG1, kappa, L234A L235A)
# heavy: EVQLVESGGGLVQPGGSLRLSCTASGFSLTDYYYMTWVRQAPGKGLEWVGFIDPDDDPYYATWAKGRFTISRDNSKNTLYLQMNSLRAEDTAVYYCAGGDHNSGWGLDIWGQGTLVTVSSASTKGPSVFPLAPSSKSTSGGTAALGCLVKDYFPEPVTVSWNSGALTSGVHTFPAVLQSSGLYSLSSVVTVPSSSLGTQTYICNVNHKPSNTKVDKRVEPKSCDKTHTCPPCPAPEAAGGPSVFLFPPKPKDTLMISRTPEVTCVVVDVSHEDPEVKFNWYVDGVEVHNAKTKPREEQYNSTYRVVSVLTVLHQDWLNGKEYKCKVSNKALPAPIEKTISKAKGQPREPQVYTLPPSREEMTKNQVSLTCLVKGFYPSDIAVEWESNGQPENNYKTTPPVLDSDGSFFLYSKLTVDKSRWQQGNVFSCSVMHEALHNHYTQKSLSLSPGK
# light: B1 light
# notes: also called IgG of NVS4
# B14: NVS84 (designed binder)
# chain: SDLGKKLLEAARAGQDDEVRILMANGADVNTADSTGWTPLHLAVPWGHLEIVEVLLKYGADVNAKDFQGWTPLHLAAAIGHQEIVEVLLKNGADVNAQDKFGKTAFDISIDNGNEDLAEILQKAAGSLPETGGGSGHHHHHH
# notes: Untagged anti-VEGF DARPin
# B15: NVS83 (scFv)
# scFv: MEIVMTQSPSTLSASVGDRVIITCQASEIIHSWLAWYQQKPGKAPKLLIYLASTLASGVPSRFSGSGSGAEFTLTISSLQPDDFATYYCQNVYLASTNGANFGQGTKLTVLGGGGGGSGGGGSGGGGSSGGGSEVQLVESGGGLVQPGGSLRLSCTASGFSLTDYYYMTWVRQAPGKGLEWVGFIDPDDDPYYATWAKGRFTISRDNSKNTLYLQMNSLRAEDTAVYYCAGGDHNSGWGLDIWGQGTLVTVSSHHHHHH
# notes: also called scFv of NVS4
# B16: NVS105 (Fab)
# heavy: QVQLVESGGGLVQPGGSLRLSCTASGFSLTDYYYMTWVRQAPGKGLEWVGFIDPDDDPYYATWAKGRFTISRDNSKNTLYLQMNSLRAEDTAVYYCAGGDHNSGWGLDIWGQGTLVTVSSASTKGPSVFPLAPSSKSTSGGTAALGCLVKDYFPEPVTVSWNSGALTSGVHTFPAVLQSSGLYSLSSVVTVPSSSLGTQTYICNVNHKPSNTKVDKRVEPKSCGSGGGACGVYHREAQSGKYYLTYAEAKAVCEFEGGHLATYKQLLCAQKIGFHVCAAGWMAKGRVGYPIVKPGPNCGFGKTGIIDYGIRLNRSERWDAYCYNPHA
# light: DIVMTQSPSTLSASVGDRVIITCQASEIIHSWLAWYQQKPGKAPKLLIYLASTLASGVPSRFSGSGSGAEFTLTISSLQPDDFATYYCQNVYLASTNGANFGQGTKLTVLKRTVAAPSVFIFPPSDEQLKSGTASVVCLLNNFYPREAKVQWKVDNALQSGNSQESVTEQDSKDSTYSLSSTLTLSKADYEKHKVYACEVTHQGLSSPVTKSFNRGECGSGGGACGVYHREAQSGKYYLTYAEAKAVCEFEGGHLATYKQLLCAQKIGFHVCAAGWMAKGRVGYPIVKPGPNCGFGKTGIIDYGIRLNRSERWDAYCYNPHA
# notes: Tag NVS-AX at the C-terminus of NVS4 heavy and light chains
# B17: NVS107 (Fab)
# heavy: B16 heavy with Q1E, D31N, D55Q, D56N, D100N, D108N
# light: B16 light with D1E, E27Q, I28K, L50Q, T53K, S56K
# notes: Tag NVS-AX at the C-terminus of the LC2 light chain and the HC4 heavy chain
# B18: NVS75T (Fab, V domains shown)
# VH: QVQLVESGGGVVQPGRSLRLSCAASGFTFSVYGMNWVRQAPGKGLEWVAIIWYDGDNQYYADSVKGRFTISRDNSKNTLYLQMNGLRAEDTAVYYCARDLRTGPFDYWGQGTLVTVSS
# VL: EIVLTQSPDFQSVTPKEKVTITCRASQSIGSSLHWYQQKPDQSPKLLIKYASQSFSGVPSRFSGSGSGTDFTLTINSLEAEDAAAYYCHQSSSLPFTFGPGTKVDIKR
# notes: Anti-IL-1β Fab with HA tag; also called NCS75T
# Legend:
# human VEGF [1] = molecular target: T1, human VEGF; assay: Biacore SPR, human VEGF
# Experimental: (§1) In order to determine target kinetics, two different formats were utilized. […] The second format is an anti-fab capture method in which the fab protein samples are captured and the target proteins flowed over at various concentrations.
# (§2) The sample compartment which includes the analytes, ligands, and regeneration buffer, is kept at 15° C. All other running conditions were carried out at either 25° C. or 37° C. in 1×HBSE+P buffer. […] Data was collected at 10 Hz and analyzed using the Biacore T200 Evaluation Software (GE Healthcare®). This program uses a global fitting analysis method for the determination of rate and affinity constants for each interaction.
# human VEGF [2] = molecular target: T1, human VEGF; assay: Biacore SPR, hVEGF-biotin, 37 C
# human VEGF [3] = molecular target: T1, human VEGF; assay: Biacore SPR, hVEGF-biotin, 25 C
# human Factor P = molecular target: T2, human Factor P (human, UniProt P27918 28-469, biotinylated (site not stated)); assay: Biacore SPR, Hu factor P-biotin, 37 C
# T2 construct: also called Factor P-biotin; Hu factor P-biotin
# human TNFα = molecular target: T3, human TNFα (human, UniProt P01375 77-233, biotinylated (site not stated)); assay: Biacore SPR, Hu TNFα-biotin, 37 C
# T3 construct: also called TNFα-biotin; Hu TNFα-biotin
# human VEGF [4] = molecular target: T1, human VEGF; assay: Biacore SPR, hVEGF
# human VEGF [5] = molecular target: T1, human VEGF; assay: Biacore SPR, Hu VEGF-biotin, 37 C
# Experimental: as §1, §2
# human VEGF [6] = molecular target: T1, human VEGF; assay: Biacore SPR, Hu VEGF-biotin, 25 C
# Experimental: as §1, §2
# IL-1β = molecular target: T4, IL-1β (human, UniProt P01584 117-269, biotinylated (site not stated)); assay: Biacore SPR, IL1β-biotin, 25 C
# T4 construct: also called IL1β-biotin
# T2 sequence (P27918 28-469 limits assumed): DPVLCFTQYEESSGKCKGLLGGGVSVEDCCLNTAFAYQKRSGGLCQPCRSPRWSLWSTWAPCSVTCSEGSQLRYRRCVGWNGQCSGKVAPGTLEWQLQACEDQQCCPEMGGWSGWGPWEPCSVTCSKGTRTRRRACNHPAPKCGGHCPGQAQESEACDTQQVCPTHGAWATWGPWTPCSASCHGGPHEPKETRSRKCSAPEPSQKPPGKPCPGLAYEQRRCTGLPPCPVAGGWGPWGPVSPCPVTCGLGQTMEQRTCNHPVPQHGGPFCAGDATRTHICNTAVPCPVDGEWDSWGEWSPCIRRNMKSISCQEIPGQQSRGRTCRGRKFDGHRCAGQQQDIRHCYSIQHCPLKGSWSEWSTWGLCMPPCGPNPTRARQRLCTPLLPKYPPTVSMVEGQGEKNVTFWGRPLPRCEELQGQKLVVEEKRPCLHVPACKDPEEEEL
# T3 sequence (P01375 77-233 limits assumed): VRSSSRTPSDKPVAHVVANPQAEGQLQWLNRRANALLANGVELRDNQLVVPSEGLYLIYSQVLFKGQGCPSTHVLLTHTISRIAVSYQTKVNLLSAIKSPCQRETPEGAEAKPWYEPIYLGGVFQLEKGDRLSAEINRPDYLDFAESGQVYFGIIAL
binder,measurement,setting,value
B1,Kd,human VEGF [1],5.1 pM
same,koff,human VEGF [1],1.38e-05 s⁻¹
same,kon,human VEGF [1],2.71e+06 M⁻¹ s⁻¹
B2,Kd,human VEGF [1],0.176 pM
same,koff,human VEGF [1],1.01e-05 s⁻¹
same,kon,human VEGF [1],5.75e+07 M⁻¹ s⁻¹
B3,Kd,human VEGF [1],0.195 pM
same,koff,human VEGF [1],1.05e-05 s⁻¹
same,kon,human VEGF [1],5.36e+07 M⁻¹ s⁻¹
B4,Kd,human VEGF [1],0.161 pM
same,koff,human VEGF [1],1.19e-05 s⁻¹
same,kon,human VEGF [1],7.39e+07 M⁻¹ s⁻¹
B5,Kd,human VEGF [1],3.07 pM
same,koff,human VEGF [1],7.21e-05 s⁻¹
same,kon,human VEGF [1],2.35e+07 M⁻¹ s⁻¹
B6,Kd,human VEGF [2],0.9 pM
same,koff,human VEGF [2],1.26e-05 s⁻¹
same,kon,human VEGF [2],1.4e+07 M⁻¹ s⁻¹
B7,Kd,human VEGF [3],5.46 pM
same,kon,human VEGF [3],614000 M⁻¹ s⁻¹
B8,Kd,human VEGF [3],0.558 pM
same,koff,human VEGF [3],8.76e-06 s⁻¹
same,kon,human VEGF [3],1.57e+07 M⁻¹ s⁻¹
B9,Kd,human VEGF [3],5.64 pM
same,koff,human VEGF [3],0.000172 s⁻¹
same,kon,human VEGF [3],3.05e+07 M⁻¹ s⁻¹
B10,Kd,human Factor P,543 pM
same,koff,human Factor P,0.00161 s⁻¹
same,kon,human Factor P,2.96e+06 M⁻¹ s⁻¹
B11,Kd,human TNFα,26 pM
same,koff,human TNFα,8.01e-05 s⁻¹
same,kon,human TNFα,3.08e+06 M⁻¹ s⁻¹
B12,Kd,human VEGF [4],4.13 pM
same,koff,human VEGF [4],0.000257 s⁻¹
same,kon,human VEGF [4],6.23e+07 M⁻¹ s⁻¹
same,Kd,human VEGF [1],0.656 pM
same,koff,human VEGF [1],2.5e-05 s⁻¹
same,kon,human VEGF [1],3.81e+07 M⁻¹ s⁻¹
B13,Kd,human VEGF [5],7.64 pM
same,koff,human VEGF [5],2.34e-05 s⁻¹
same,kon,human VEGF [5],3.06e+06 M⁻¹ s⁻¹
B14,Kd,human VEGF [6],419 pM
same,koff,human VEGF [6],0.00168 s⁻¹
same,kon,human VEGF [6],4.01e+06 M⁻¹ s⁻¹
B15,Kd,human VEGF [6],6.75 pM
same,koff,human VEGF [6],9.18e-06 s⁻¹
same,kon,human VEGF [6],1.36e+06 M⁻¹ s⁻¹
B16,Kd,human VEGF [4],0.13 pM
same,koff,human VEGF [4],3.97e-05 s⁻¹
same,kon,human VEGF [4],3.06e+08 M⁻¹ s⁻¹
B17,Kd,human VEGF [4],0.741 pM
same,koff,human VEGF [4],0.000104 s⁻¹
same,kon,human VEGF [4],1.41e+08 M⁻¹ s⁻¹
B18,Kd,IL-1β,14 pM
same,koff,IL-1β,6.9e-05 s⁻¹
same,kon,IL-1β,4.95e+06 M⁻¹ s⁻¹
